Measured values from patent US20240344241A1, “PROTEINACEOUS MOLECULES AND USES THEREFOR” (THE UNIVERSITY OF QUEENSLAND, priority 2021, published 2024).

Assays:
[1] = biological target: T1, human β-factor XIIa (human), P00748; experiment: competitive protease inhibition assay, Ac-QRFR-pNA substrate, Morrison Ki
T1 chain 1: NGPLSCGQR
T1 chain 2: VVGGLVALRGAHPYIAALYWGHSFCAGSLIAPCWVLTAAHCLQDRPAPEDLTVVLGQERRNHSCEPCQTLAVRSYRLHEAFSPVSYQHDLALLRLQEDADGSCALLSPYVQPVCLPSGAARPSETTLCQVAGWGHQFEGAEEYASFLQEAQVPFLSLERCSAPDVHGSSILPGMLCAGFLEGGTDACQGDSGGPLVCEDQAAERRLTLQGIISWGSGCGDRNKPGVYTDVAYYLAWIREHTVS

[2] = biological target: human cationic trypsin (human), P07477; experiment: competitive protease inhibition assay (selectivity panel), human trypsin, Boc-VPR-MCA
[3] = biological target: T2, recombinant human matriptase (human), Q9Y5Y6; experiment: competitive protease inhibition assay (selectivity panel), human matriptase, Boc-QAR-MCA
T2 chain: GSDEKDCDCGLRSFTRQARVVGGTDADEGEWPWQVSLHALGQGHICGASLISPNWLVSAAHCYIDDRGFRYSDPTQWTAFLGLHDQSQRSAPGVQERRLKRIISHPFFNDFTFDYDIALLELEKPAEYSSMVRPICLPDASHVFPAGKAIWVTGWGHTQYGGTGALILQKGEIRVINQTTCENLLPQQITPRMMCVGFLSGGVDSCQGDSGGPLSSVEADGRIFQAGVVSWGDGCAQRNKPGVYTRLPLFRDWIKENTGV

[4] = biological target: T3, human plasmin (human), P00747; experiment: competitive protease inhibition assay (selectivity panel), human plasmin, Ac-RM(O2)YR-pNA
T3 chain: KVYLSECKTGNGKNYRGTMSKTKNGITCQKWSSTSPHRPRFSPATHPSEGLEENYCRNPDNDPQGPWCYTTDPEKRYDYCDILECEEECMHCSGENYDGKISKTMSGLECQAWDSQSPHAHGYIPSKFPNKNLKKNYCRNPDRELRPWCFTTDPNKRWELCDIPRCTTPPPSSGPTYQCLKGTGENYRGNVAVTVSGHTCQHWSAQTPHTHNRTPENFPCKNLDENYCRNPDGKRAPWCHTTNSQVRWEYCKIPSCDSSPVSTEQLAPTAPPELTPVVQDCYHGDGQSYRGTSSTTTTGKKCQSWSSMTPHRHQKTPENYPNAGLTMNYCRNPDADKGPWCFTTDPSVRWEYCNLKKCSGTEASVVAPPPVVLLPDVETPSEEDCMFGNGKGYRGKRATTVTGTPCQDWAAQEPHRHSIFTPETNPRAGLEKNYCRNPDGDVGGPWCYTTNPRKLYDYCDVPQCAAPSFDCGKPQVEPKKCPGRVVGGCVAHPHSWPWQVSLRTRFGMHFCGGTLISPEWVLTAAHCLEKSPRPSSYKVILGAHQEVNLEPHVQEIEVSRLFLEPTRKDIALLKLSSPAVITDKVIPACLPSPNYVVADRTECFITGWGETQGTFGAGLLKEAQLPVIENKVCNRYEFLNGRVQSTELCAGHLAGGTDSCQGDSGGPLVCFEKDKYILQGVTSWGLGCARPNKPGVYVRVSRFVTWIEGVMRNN

[5] = biological target: T1, human β-factor XIIa (human), P00748; experiment: competitive protease inhibition assay, 0.5 nM FXIIa, Boc-QGR-MCA substrate (unit as printed; probably pM)

B1: cMCoTI-fxL5 (peptide)
peptide: DGGVCPKILKKCRRDSDCPGACICRATRFCGSGS
modifications: not checked
B1 gave a Ki [1] of 66 nM, a Ki [2] of 0.08 nM and a Ki [3] of 17 nM. It also gave a Ki [4] of 31 nM.

B2: Cyclic MCoFx6 (peptide)
peptide: GGICPRFGRLCRRDSDCPGACICRATRFCGSGSD
modifications: not checked
In the case of B2, the Ki [5] is reported as 1.09 nM.
